{"source": "patent CN111499746A", "about": "(YUROGEN BIOSYSTEMS LLC, dated 2020)", "binders": {"B1": {"name": "抗人IL-2蛋白兔单克隆抗体B (antibody, V domains shown)", "VH": "QSLEESGGRLVTPGGSLTLTCTVSGIDLSTGGVSWVRQAPGKGLEWIGIISRHTNTYYASWAKGRFTISKTSSTTVDVKITSPTIEDTATYYCARVSSGDGLYAFDPWGPGTLVTVSS", "VL": "AIEMTQTPSPVSAAVGGTVTINCQASEDIETYLAWYQQKPGQPPRLLIYSGSTIASGVSSHFKGSGSGTEFTLTISDLECADAATYYCQCTSYASGYWNQAFGGGTEVVVRG", "notes": "Recombinant rabbit monoclonal antibody made in 293 cells and purified on protein A; in the Biacore assay it is unlabelled; also called 人IL-2兔单克隆抗体B"}, "B2": {"name": "抗人IL-2蛋白兔单克隆抗体A (antibody, V domains shown)", "VH": "QSVAESGGRLVTPGTPLTLTCTASGFSLTTYAMSWVRQAPGKGLEWIAIIYIDGTTYYGSWAKGRFTISKTSTTVDLRIISPTTEDTATYFCAKWYVGEMDLWGPGTLVTVSS", "VL": "DIVMTQTPASVEAAVGGTVTINCQASQSVYRDNYLAWYQQKPGQRPKLLIYGTSTLASGVSSRFKGSGSGTQFTLTISDLECADAATYYCQSYVYSSTIDNAFGGGTEVVVKG", "notes": "Recombinant rabbit monoclonal antibody made in 293 cells and purified on protein A; also called 人IL-2兔单克隆抗体A"}}, "target": "T1, 重组人IL-2蛋白 (human, UniProt P60568 21-153)", "T1 construct": "also called 人白介素-2; 重组表达人IL-2", "T1 sequence (P60568 21-153 limits assumed)": "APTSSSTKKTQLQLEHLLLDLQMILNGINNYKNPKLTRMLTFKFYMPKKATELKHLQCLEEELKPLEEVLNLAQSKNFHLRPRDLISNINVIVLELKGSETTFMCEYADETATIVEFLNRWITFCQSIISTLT", "test": "SPR, Biacore 3000; antibody at 333 nM, recombinant human IL-2 at 64, 32, 16, 8, 4 nM", "data": [{"binder": "B1", "values": [{"measurement": "Kd", "value": 0.293, "unit": "nM"}]}, {"binder": "B2", "values": [{"measurement": "Kd", "value": 0.899, "unit": "nM"}]}]}
